Assays:
[1] = target: FcαRIR209L/γ chimeric receptor (human) (UniProt P24071); assay: cell-based or functional assay
[2] = target: wild-type human FcαRI (human) (UniProt P24071); assay: cell-based or functional assay

inhibition of IgE-mediated degranulation against irrelevant control Fab [1]: 91%
Fab concentration giving maximal inhibition of degranulation [2]: 1 to 10 µg/mL
inhibition of FcεRI-induced degranulation, 10 µg/ml Fab [2]: > 50%
inhibition of IgE-mediated degranulation (β-hexosaminidase release), 10 µg/ml Fab [2]: 74%
inhibition of IgE-mediated degranulation against irrelevant control Fab [2]: 72%
inhibition of IgG-mediated phagocytosis of E. coli by human blood monocytes [2]: > 80%
Substance: anti-FcαRI Fab A77 (Fab fragment of anti-FcαRI mAb, IgG1κ, clone A77)
